Experimental findings from article PMC12576452 are described below.

The assay addresses HBV-S/preS1^16-42 antigen, untagged, produced in P. purpureum (Hepatitis B virus) (UniProt P03138). Put plainly: SDS-PAGE under native, non-reducing (-DTT) and reducing (+DTT) conditions with western blot; lysates of freeze-dried algal biomass; bands of monomers, dimers and oligomers detected with anti-preS1 antibodies; disulfide-linked. In general terms: Immunoblotting shows a protein as a band on a membrane.

In turn, “HBV-S/preS1^16-42 antigen, untagged, produced in P. purpureum (from UniProt P03138 16-42)” registered a stoichiometry N of 2.

As usually defined, the stoichiometry N is the number of molecules, sites or subunits per partner or assembly.
